{"source": "paper PMC5721652", "about": "“Nanobodies targeting conserved epitopes on the major outer membrane protein of Campylobacter as potential tools for control of Campylobacter colonization” (Veterinary Research, 2017)", "binders": {"B1": {"name": "Nb15, His-tagged (VHH)", "VHH": "QVQLQESGGGLVQPGGSLRLSCAASGRTFRSYDMGWFRQAPGKEREFVAASAWSAGRTIYKNSVKGRFTISRDNTKDTMYLQMNDLKPEDTAVYFCAADRNPPPIYNEFYYYRASAYDYWGQGTQVTVSS", "notes": "One of the six nanobodies with less broad specificity; its name is printed only in the legend of Additional file 5; also called anti-Campylobacter nanobody; not shown: His-tag, C-terminal, kept"}, "B2": {"name": "Nb48, His-tagged (VHH)", "VHH": "QVQLQESGGGSVQAGESLRLACAASGSILSINIMRWYRQAPGKQRELVATIGRSGNTDLADFAKGRFTGSRDNGKNTVYLQMNNLKPEDTAVYYCNALLTTLSAQTGVYWGQGTQVTVSS", "notes": "as for B1"}, "B3": {"name": "Nb34, His-tagged (VHH)", "VHH": "QVQLQESGGGLVQAGGSLRLSCAASGRTSSSYAMGWFRQAPGKEREFVTAISWNGSKAYYSDSVKGRFTISRDNAKNTVYLQMNSLKPEDTAVYYCAQGAYRVVADPGEYDYWGQGTQVTVSS", "notes": "One of the six nanobodies with less broad specificity; also called anti-Campylobacter nanobody; not shown: His-tag, C-terminal, kept"}, "B4": {"name": "Nb45, His-tagged (VHH)", "VHH": "QVQLQESGGGLVQAGGSLRLACVASSTIFSINNMAWYRQAPGKQRELVARITAGGNTNYADSVKGRFTISKDKGKNTVRLQMNSLKPEDTGVYYCKCGGCGTPYSLSEDYWGQGTQVTVSS", "notes": "as for B3"}, "B5": {"name": "Nb32, His-tagged (VHH)", "VHH": "QVQLQESGGGLVQAGDSLRLSCAASGGTFSNYVLGWFRQAPGKEREFVAAIRWSGERTYYADSVKGRFTISSDNAKYRQVTVYLEMNSLKPEDTAVYYCAARAPNYYSDSQPPVTLSEYKVWGQGTQVTVSS", "notes": "as for B3"}, "B6": {"name": "Nb63, His-tagged (VHH)", "VHH": "QVQLQESGGGLVQPGGSLRLSCVASGSTFAINVMGWYRRAPGKQRELVATVTSGSTTYSRVRSSDTTYADSVKGRFTISRDNAKNMVYLQMNSLKPEDTAVYYCNARTRNTIATSDGMDYWGKGTQVTVSS", "notes": "as for B1"}, "B7": {"name": "Nb23, His-tagged (VHH)", "VHH": "QVQLQESGGGLVQPGGSLRLSCAASGTIDNFNGMGWYRQAPGKQREWLARITMNGRTIYAESVEGRFTISRDKVKNTLALQMNSLKPEDTAVYYCNARGVLTPRGIHDYWGQGTQVTVSS", "notes": "Cloned in pHen6C; one of the six nanobodies with broad specificity; also called anti-Campylobacter nanobody; not shown: His-tag, C-terminal, kept"}, "B8": {"name": "Nb24, His-tagged (VHH)", "VHH": "QVQLQESGGGLVQPGGSLRLSCAASGRTFSRFSDNYVMGWFRQAPGKEREVVGAIRWSVASTYYADFVKGRFTISRDSAMNTMYLQMNNLKPEDTAVYYCATKFSGPINGGQTSYNYWGQGTQVTVSS", "notes": "as for B7"}, "B9": {"name": "Nb49, His-tagged (VHH)", "VHH": "QVQLQESGGGLVQPGWSLRLSCAASSIFEINAMGWYRQPPGKQRERVATITDGFGTNYADSVKGRFTISRDNAKNTVYLQMNSLRPEDTAVYYCSAQRTVPYKMTYWGQGTQVTVSS", "notes": "as for B7"}, "B10": {"name": "Nb15, strep-tagged (VHH)", "VHH": "B1 VHH", "notes": "as the VHH of m8; also called strep-tagged Nb15; source: E. coli, purified (StrepTrap HP); not shown: strep-tag, C-terminal, kept"}, "B11": {"name": "Nb23, strep-tagged (VHH)", "VHH": "B7 VHH", "notes": "as the VHH of m4; also called strep-tagged Nb23; source: E. coli, purified (StrepTrap HP); not shown: strep-tag, C-terminal, kept"}, "B12": {"name": "Nb48, strep-tagged (VHH)", "VHH": "B2 VHH", "notes": "as the VHH of m12; also called strep-tagged Nb48; source: E. coli, purified (StrepTrap HP); not shown: strep-tag, C-terminal, kept"}, "B13": {"name": "Nb5, strep-tagged (VHH)", "VHH": "QVQLQESGGGLVQAGGSLRLSCAASGTIISLNSMGWYRQAPGKQRELVAALTSGGTTNYADSVKGRFTISRVNAKNTVYLQMNSLKPEDTAVYYCNAKLITTAQGMVLASWGQGTQVTVSS", "notes": "as the VHH of m2; the printed oligo encodes the tag directly after the end of the nanobody; also called strep-tagged Nb5; source: E. coli, purified (StrepTrap HP); not shown: strep-tag, C-terminal, kept"}, "B14": {"name": "Nb34, strep-tagged (VHH)", "VHH": "B3 VHH", "notes": "as the VHH of m10; also called strep-tagged Nb34; source: E. coli, purified (StrepTrap HP); not shown: strep-tag, C-terminal, kept"}, "B15": {"name": "Nb24, strep-tagged (VHH)", "VHH": "B8 VHH", "notes": "as the VHH of m5; also called strep-tagged Nb24; source: E. coli, purified (StrepTrap HP); not shown: strep-tag, C-terminal, kept"}, "B16": {"name": "Nb49, strep-tagged (VHH)", "VHH": "B9 VHH", "notes": "as the VHH of m6; also called strep-tagged Nb49; source: E. coli, purified (StrepTrap HP); not shown: strep-tag, C-terminal, kept"}, "B17": {"name": "Nb45, strep-tagged (VHH)", "VHH": "B4 VHH", "notes": "as the VHH of m11; also called strep-tagged Nb45; source: E. coli, purified (StrepTrap HP); not shown: strep-tag, C-terminal, kept"}, "B18": {"name": "Nb32, strep-tagged (VHH)", "VHH": "B5 VHH", "notes": "as the VHH of m9; also called strep-tagged Nb32; source: E. coli, purified (StrepTrap HP); not shown: strep-tag, C-terminal, kept"}, "B19": {"name": "Nb63, strep-tagged (VHH)", "VHH": "B6 VHH", "notes": "as the VHH of m13; also called strep-tagged Nb63; source: E. coli, purified (StrepTrap HP); not shown: strep-tag, C-terminal, kept"}, "B20": {"name": "Nb22, fluorescently labelled (VHH)", "VHH": "QVQLQESGGGLVQPGGSLRLSCAVSRTIFNFNNMGWYRQPPGKPRELVARITMNGRTDYADPVKGRFTISRDSAKNTLALQMNDLKGDDTAVYYCAARGAVRTGNLMPTDYWGQGTQVTVSS", "notes": "as the VHH of m3; probably the C-terminally His-tagged one; also called fluorescently labelled Nb22; source: E. coli, purified; labelled with Dylight 650 NHS Ester"}, "B21": {"name": "Nb84, fluorescently labelled (VHH)", "VHH": "QVQLQESGGGLVQAGGSLRLSCKASGTIISINNMGWYRRSPGKERDMVARIFSSGTINYTDSVKGRFTISRDNAKNTVYLEMNSLKPEDTAIYYCNARLTTTAMGTIPNSWGQGTQVTVSS", "notes": "as the VHH of m7; probably the C-terminally His-tagged one; also called fluorescently labelled Nb84; labelled Nb84; source: E. coli, purified; labelled with Dylight 650 NHS Ester"}, "B22": {"name": "Nb5, His-tagged (VHH)", "VHH": "B13 VHH", "notes": "as for B7"}}}
{"biological_target": "T1, major outer membrane protein (MOMP) of Campylobacter jejuni KC40 (Campylobacter jejuni KC40 (stand-in: …, UniProt P80672, strain))", "T1 construct": "major outer membrane protein (MOMP, porA) of C. jejuni strain KC40; the printed entry P80672 is that of strain NCTC 11168, to which the peptides of the pull-down matched; The legends call the purified protein a MOMP monomer; the introduction describes MOMP as a trimeric porin; Kept in 0.6% octyl-POE after purification; also called purified MOMP monomer; native MOMP; source: purified from C. …", "assay": "ELISA; purified MOMP coated at 1 µg/mL; His-tagged nanobody at 50 µg/mL, or tenfold serial dilutions of His-tagged Nb84 (saturation binding); detected with anti-Histidine tag antibody", "conditions": "both partners purified"}
{"binder": "B1", "binding result": "binds"}
{"binder": "B2", "binding result": "binds"}
{"binder": "B3", "binding result": "binds"}
{"binder": "B4", "binding result": "binds"}
{"binder": "B5", "binding result": "binds"}
{"binder": "B6", "binding result": "binds"}
{"biological_target": "T1, major outer membrane protein (MOMP) of …", "assay": "far-Western, overlay or dot blot; purified MOMP run on a non-denaturing gel, transferred to PVDF, incubated with 5 µg/mL His-tagged nanobody for 1 h at 4 °C, detected with anti-Histidine tag antibody", "conditions": "both partners purified"}
{"binder": "B7", "binding result": "binds"}
{"binder": "B8", "binding result": "binds"}
{"binder": "B9", "binding result": "binds"}
{"biological_target": "T1, major outer membrane protein (MOMP) of …", "assay": "ELISA; competition: MOMP coated at 1 µg/mL; serial dilutions of strep-tagged nanobody and a constant 5 x 10^-2 µg/mL of His-tagged Nb84 added simultaneously; bound His-tagged Nb84 detected with anti-Histidine tag antibody", "conditions": "both partners purified"}
{"binder": "B10", "binding result": "binds"}
{"binder": "B11", "binding result": "binds"}
{"binder": "B12", "binding result": "binds"}
{"binder": "B13", "binding result": "binds"}
{"binder": "B14", "binding result": "binds"}
{"binder": "B15", "binding result": "binds"}
{"binder": "B16", "binding result": "binds"}
{"binder": "B17", "binding result": "binds"}
{"binder": "B18", "binding result": "binds"}
{"binder": "B19", "binding result": "binds"}
{"biological_target": "T1, major outer membrane protein (MOMP) of …", "assay": "MST; saturation: Dylight 650 labelled nanobody constant at 32 nM, twofold serial dilutions of MOMP from 0.3 nM to 5.0 µM; 20 mM sodium phosphate pH 7.6, 150 mM NaCl, 0.6% octyl-POE", "conditions": "both partners purified", "units": {"Kd": "nM"}}
{"binder": "B20", "Kd": "118 ± 48"}
{"binder": "B21", "Kd": "422 ± 159"}
{"biological_target": "T1, major outer membrane protein (MOMP) of …", "assay": "pull-down; His-tagged nanobody (20 µL of 1.0 mg/mL) mixed with 500 µL outer membrane proteins of C. jejuni KC40 (1.2 mg/mL), 2 h at 4 °C, captured overnight at 4 °C on Co2+-coated Dynabeads; eluted band cut from a silver-stained gel and identified by LC-MS/MS", "conditions": "one partner purified"}
{"binder": "B22", "binding result": "binds"}
